Target: Exportin-1-Ran-GTP complex (human, UniProt O14980 1-1071; P62826 1-216, Q69L)
Test: AUC; sedimentation velocity with Ran-GTP present; proteins incubated together at equimolar concentrations at 20 °C for 30 min in GF1 buffer (20 mM Tris-Cl pH 7.5, 100 mM NaCl, 5 mM MgOAc, 2 mM DTT); 40,000 rpm, 280 nm, c(s) analysis
Conditions: both partners purified

B1: 6His-DDX3X(1-580) (domain or fragment)
chain: MSHVAVENALGLDQQFAGLDLNSSDNQSGGSTASKGRYIPPHLRNREATKGFYDKDSSGWSSSKDKDAYSSFGSRSDSRGKSSFFSDRGSGSRGRFDDRGRSDYDGIGSRGDRSGFGKFERGGNSRWCDKSDEDDWSKPLPPSERLEQELFSGGNTGINFEKYDDIPVEATGNNCPPHIESFSDVEMGEIIMGNIELTRYTRPTPVQKHAIPIIKEKRDLMACAQTGSGKTAAFLLPILSQIYSDGPGEALRAMKENGRYGRRKQYPISLVLAPTRELAVQIYEEARKFSYRSRVRPCVVYGGADIGQQIRDLERGCHLLVATPGRLVDMMERGKIGLDFCKYLVLDEADRMLDMGFEPQIRRIVEQDTMPPKGVRHTMMFSATFPKEIQMLARDFLDEYIFLAVGRVGSTSENITQKVVWVEESDKRSFLLDLLNATGKDSLTLVFVETKKGADSLEDFLYHEGYACTSIHGDRSQRDREEALHQFRSGKSPILVATAVAARGLDISNVKHVINFDLPSDIEEYVHRIGRTGRVGNLGLATSFFNERNINITKDLLDLLVEAKQEVPSWLENMAYEHHY
notes: DEAD-box helicase 3, X-linked (DDX3X), human, residues 1-580 of the 662-residue protein; Cloned in pCOLD-IV with an N-terminal 6His tag; no removal of the tag is described; also called wild-type DDX3X(1‒580); DEAD-box helicase 3, X-linked; source: E. coli BL21(DE3), purified (Ni-NTA, Superdex 200 SEC)
B1: binds.

B2: DDX3X(1-168) (domain or fragment)
chain: MSHVAVENALGLDQQFAGLDLNSSDNQSGGSTASKGRYIPPHLRNREATKGFYDKDSSGWSSSKDKDAYSSFGSRSDSRGKSSFFSDRGSGSRGRFDDRGRSDYDGIGSRGDRSGFGKFERGGNSRWCDKSDEDDWSKPLPPSERLEQELFSGGNTGINFEKYDDIPV
notes: DEAD-box helicase 3, X-linked (DDX3X), human, residues 1-168; The purification section names only the 1-580 constructs; the expression and purification of the 1-168 fragment are not described on their own; also called DDX3X(1–168) fragment; source: purified recombinant; truncations were cloned in pCOLD-IV for bacterial expression
B2: binds.

Reference: publication PMC6848931, “Exportin-1-Dependent Nuclear Export of DEAD-box Helicase DDX3X is Central to its Role in Antiviral Immunity” (Cells, 2019)
